Results: article PMC8240387 (2021)

B1: Mammalian cell-expressed N6 (mN6), broadly neutralising anti-HIV monoclonal antibody N6 expressed in HEK-293T cells (antibody)
chain 1: RAHLVQSGTAMKKPGASVRVSCQTSGYTFTAHILFWFRQAPGRGLEWVGWIKPQYGAVNFGGGFRDRVTLTRDVYREIAYMDIRGLKPDDTAVYYCARDRSYGDSSWALDAWGQGTTVVVSA
chain 2: YIHVTQSPSSLSVSIGDRVTINCQTSQGVGSDLHWYQHKPGRAPKLLIHHTSSVEDGVPSRFSGSGFHTSFNLTISDLQADDIATYYCQVLQFFGRGSRLHIK
modifications: N-glycosylated (size shift on PNGaseF digestion) | N-glycosylated (size shift on PNGaseF digestion)
B2: Plant-expressed N6 (pN6), broadly neutralising anti-HIV monoclonal antibody N6 expressed in glycoengineered ΔXF N. benthamiana (antibody)
chain 1: B1 chain 1
chain 2: B1 chain 2
modifications: N-glycosylated: GnGn 81.67%, fucosylated 0.69%, no xylosylation, 6.48% non-glycosylated | N-glycosylated: mature complex-type glycans, α(1,3)-fucose 20.93%, no xylosylation, no high mannose …

Key:
soluble FcγRIIIa = soluble FcγRIIIa (UniProt P08637 17-208); test: SPR
[1] = target: recombinant, soluble HIV-1 UG37 gp140 (HIV-1 clade A strain 92UG037); test: SPR

soluble FcγRIIIa, sequence (P08637 17-208): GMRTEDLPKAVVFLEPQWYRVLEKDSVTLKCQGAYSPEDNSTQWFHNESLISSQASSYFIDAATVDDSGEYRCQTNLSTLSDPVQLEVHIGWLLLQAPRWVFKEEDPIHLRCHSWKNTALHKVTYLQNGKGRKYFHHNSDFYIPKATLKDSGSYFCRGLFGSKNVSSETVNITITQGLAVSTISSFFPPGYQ

Binder	koff (soluble FcγRIIIa)	koff [1]
B1	0.17 s⁻¹	0.000189 s⁻¹
B2	0.016 s⁻¹	0.000115 s⁻¹
